How the values were obtained:
Format in all cases: physicochemical
[1] = Gelation kinetics of 0.5% RADA16 treated with cations and anions
Description: Rheological measurements of gelation kinetics of 0.5% RADA16 (SEQ ID NO:1)+NaCl, KCl, and CaCl2) were evaluated. A solution of 0.5% RADA16 (SEQ ID NO:1) was prepared and gelation kinetics were observed by treatment with several cations (e.g., Nat, Ca^2+, K^+) and anions (e.g., Cl^−, CO3^2−, PO4^3−, SO4^2−). It was determined how long it will take for the peptide mixtures to gel and how to control that gelation time by varying the cation/anion type and concentration. […] In vivo and in vitro qualitative experiments and the resulting observations were supportive of these conclusions.

[2] = Rheological measurements of RADA16 with NaCl, KCl, CaCl2 (stiffness, reversibility)
Description: In a rheological comparison of […] (SEQ ID NO:1)+NaCl, KCl, and CaCl2), solutions of 0.5% RADA16 (SEQ ID NO:1) mixed with 0.005, 0.05, 0.125, 0.25, 0.5, and 1 M NaCl, KCl, and CaCl2) were prepared. The anion, chloride (Cl−), was kept the same to observe the effect of the cations, sodium (Na+), potassium (K+), and calcium (Ca2+). FIG. 21 provides a basic understanding of how varying the cations of a salt solution effects the viscoelastic properties and the stiffness of self-assembling peptides. […] This should be because Ca has […] higher ionic strength than Na and K at the same molar concentrations. Therefore, influence of salts on the peptide solution is more related to their ionic strength rather than their molar concentration, as shown in FIGS. 17-18 and Table 2a-c. In some embodiments, there is a correlation between the properties of the peptide solutions with salts based on the concentration of the salt.
Rheological measurements of stiffness of 2.5% RADA16 (SEQ ID NO:1) and 2.5% RADA16 (SEQ ID NO:1)+0.25 M CaCl2) was evaluated.
Rheological measurements of reversibility of 0.5% RADA16 (SEQ ID NO:1) solution with +0.125, 0.25, and 0.5 M CaCl2) were evaluated. Solutions of 0.5% RADA16 (SEQ ID NO:1) mixed with 0.125, 0.25, and 0.5 M CaCl2) were prepared. The structure of the self-assembled peptide solutions were disrupted thoroughly by application of mechanical stress through vortexing and sonication. The mixtures were placed at room temperature for 48 hours to allow self-assembly to take place. […] FIG. 23A presents raw rheological data of the control peptide solution with salts and the perturbed peptide solution while FIG. 23B provides a comparison of stiffness of the control peptide solution and the perturbed peptide solution.

[3] = Rheological properties of 1% peptides before and after DMEM treatment for 2 minutes; details: peptides 1%; DMEM 2 minutes; compared with weaker peptide solutions (i.e., PuraMatrix)
Description: The effects of Dulbecco's modified Eagle's medium (DMEM) (pH 7.4) on the rheological properties of IEIK13 (SEQ ID NO:2), KLD12 (SEQ ID NO:3), and PuraMatrix® (SEQ ID NO:1) were evaluated on a rheometer (AR500, TA Instruments) with 40 mm plates. DMEM is generally a cell culture medium that contains 6.4 g/L of NaCl, 3.4 g/L NaHCO3 (sodium bicarbonate), minor amounts of other salts, various amino acids, and 4.5 g/L of glucose. The pH level of DMEM is generally 7.2±0.2 and the osmolality is 335±30 mOsm/Kg H2O; both measurements are close to human physiological fluids such as blood.
Peptide solutions (1%) were kept at 4° C. for at least 48 hours before testing. To perform the experiment, 1 mL of peptide solution was gently pipetted and placed on the plate of the rheometer. 2 mL of DMEM solution was gently added around the peptide solution. The peptide solution was treated with DMEM for two minutes, then the media was removed, and the plates were placed at a measuring geometry gap at around 450 μm. Measurements were performed at 37° C. after 2 min of relaxation time. Frequency tests were performed from 1 rad/s to 100 rad/s at 1 Pa of oscillation stress.
The rheological properties of the peptides (1%) were compared before and after DMEM treatment for 2 minutes, as shown in FIG. 1A. […]

Substance	gelation speed by anion ([1]; chloride)	gelation speed by anion ([1]; sulfate)	enhancement of stiffness by Ca compared to Na or K ([2]; 0.5% RADA16, chloride salts at the same molar concentrations)	stiffness with added cation solution versus without ([2]; 2.5% RADA16 with addition of 0.125 M CaCl2)	storage modulus ([2]; about 0.5 w/v percent, calcium chloride about 0.125 M)	storage modulus ([2]; about 0.5 w/v percent, calcium chloride about 0.250 M)	storage modulus ([2]; about 0.5 w/v percent, calcium chloride about 0.500 M)	storage modulus ([2]; about 2.5 w/v percent, calcium chloride about 0.125 M)	fold increase of storage modulus after DMEM treatment [3]
Arg-Ala-Asp-Ala-Arg-Ala-Asp-Ala-Arg-Ala-Asp-Ala-Arg-Ala-Asp-Ala [PuraMatrix ®]	quickest gelation	slowest gelation	best enhancement of stiffness	noticeable increase in stiffness	about 25 Pa	about 44 Pa	about 52 Pa	about 600 Pa	
Ile-Glu-Ile-Lys-Ile-Glu-Ile-Lys-Ile-Glu-Ile-Lys-Ile [IEIK13]									lower-fold increase

From patent US20220160939A1, “SELF-ASSEMBLING PEPTIDES AS BRONCHIAL OBSTRUCTION AGENTS” (3-D MATRIX, LTD., priority 2014, published 2022)
